Key:
FUS-SNAP, P35637 [1] = biological target: T1, FUS-SNAP, P35637; assay: dynamic light scattering; details: remark: other sources report otherwise
T1 chain: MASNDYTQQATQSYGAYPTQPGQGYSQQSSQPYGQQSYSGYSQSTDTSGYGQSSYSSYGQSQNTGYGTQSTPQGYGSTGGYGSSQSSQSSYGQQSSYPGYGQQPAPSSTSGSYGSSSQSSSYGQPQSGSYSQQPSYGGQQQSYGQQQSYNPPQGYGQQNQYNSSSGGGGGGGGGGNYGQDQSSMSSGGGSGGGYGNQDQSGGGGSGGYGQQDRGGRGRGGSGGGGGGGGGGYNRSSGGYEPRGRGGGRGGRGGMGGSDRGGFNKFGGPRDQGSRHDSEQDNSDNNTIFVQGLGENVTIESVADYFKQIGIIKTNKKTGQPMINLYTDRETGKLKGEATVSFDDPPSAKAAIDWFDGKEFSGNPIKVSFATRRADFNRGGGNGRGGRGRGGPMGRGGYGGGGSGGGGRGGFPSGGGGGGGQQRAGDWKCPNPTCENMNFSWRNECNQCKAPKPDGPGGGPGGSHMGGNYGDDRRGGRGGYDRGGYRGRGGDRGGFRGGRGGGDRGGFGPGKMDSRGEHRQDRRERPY

FUS-SNAP, P35637 [2] = biological target: T1, FUS-SNAP, P35637; assay: nanoparticle tracking analysis; details: remark: other sources report otherwise

B1: FUS-SNAP, P35637 1-526 (natural protein)
chain: T1 chain
- stoichiometry N (molecules per cluster) (FUS-SNAP, P35637 [1]): < 10
- percent of the protein molecules in mesoscale clusters (250 nM FUS-SNAP) (FUS-SNAP, P35637 [2]): 0.15%
